Assay results published in PMC6778059 (Nature cell biology, 2019).

T1: SNX5 PX domain (UniProt Q9Y5X3 25-172)
T1 sequence: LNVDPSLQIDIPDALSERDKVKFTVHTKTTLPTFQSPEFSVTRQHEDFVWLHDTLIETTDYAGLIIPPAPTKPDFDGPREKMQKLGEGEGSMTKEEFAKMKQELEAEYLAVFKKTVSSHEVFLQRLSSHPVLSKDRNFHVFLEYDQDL

T2: SNX6 PX domain (UniProt Q9UNH7 26-173)
T2 sequence: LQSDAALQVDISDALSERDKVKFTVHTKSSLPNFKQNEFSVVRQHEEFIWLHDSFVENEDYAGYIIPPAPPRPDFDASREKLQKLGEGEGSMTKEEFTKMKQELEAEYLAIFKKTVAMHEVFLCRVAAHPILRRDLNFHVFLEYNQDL


Experiments:
Assay in all cases: ITC
SNX32 PX domain = biological target: SNX32 PX domain
SNX5 PX domain = biological target: T1, SNX5 PX domain
SNX6 PX domain = biological target: T2, SNX6 PX domain

Row | Kd (SNX5 PX domain) [µM] | binding result (SNX5 PX domain) | Molecule | also measured
1 |  |  | CI-MPR peptide (residues 2347-2375) (from UniProt P11717 2347-2375) | Kd (SNX32 PX domain): 12 µM
2 | 15 |  | REVSFYYSEENKLPEPEELDLEPENMES [IGF1R peptide (residues 1275-1302)] | 
3 | ~25 |  | SNVSYKYSKVNKEEETDENETEWLMEEIQ [CI-MPR peptide (residues 2347-2375)] | Kd (SNX6 PX domain): 24 µM
4 |  | binds | SNVSYKYSKVNKEEETDENETEWLDEEIQ [CI-MPR peptide M2371D] | 
5 |  | binds | SNVSYKYSKVNKEEETDENETEWDMEEIQ [CI-MPR peptide L2370D] | 
6 |  | binds | SNVSYKYSKVNKEEETDENETEAAAEEIQ [CI-MPR peptide WLM-AAA] | 
7 | 26 |  | WDPVGYYYSDGSLKIVPGHARCQPG [SEMA4C peptide (residues 731-755)] | 
